Source: patent US20230374150A1 (Memorial Sloan Kettering, published 2023)
Changes are numbered by the printed parent chain. Several values for one entry are separate records, joined by “and”; a condition that tells them apart may be missing. Identical values can stand only once.

B1: anti-PSMAxhuC825 clone BC192 (PSMA LALA) (bispecific antibody, human IgG1, kappa, L234A L235A)
light: DIQLTQSPSFLSASVGDRVTITCRASQDVGTALDWYQQKPGKAPKLLIYWASTLHSGVPSRFSGSGSGTEFTLTISSLQPEDFATYYCQQYNSYPLTFGQGTKLEIKRTVAAPSVFIFPPSDEQLKSGTASVVCLLNNFYPREAKVQWKVDNALQSGNSQESVTEQDSKDSTYSLSSTLTLSKADYEKHKVYACEVTHQGLSSPVTKSFNRGECTSGGGGSGGGGSGGGGSHVQLVESGGGLVQPGGSLRLSCAASGFSLTDYGVHWVRQAPGKGLEWLGVIWSGGGTAYNTALISRFTISRDNSKNTLYLQMNSLRAEDTAVYYCARRGSYPYNYFDAWGCGTLVTVSSGGGGSGGGGSGGGGSGGGGSGGGGSGGGGSQAVVTQEPSLTVSPGGTVTLTCGSSTGAVTASNYANWVQQKPGQCPRGLIGGHNNRPPGVPARFSGSLLGGKAALTLLGAQPEDEAEYYCALWYSDHWVIGGGTKLTVLG
heavy: not shown
B2: anti-PSMAxhuC825 clone BC193 (PSMA K322) (bispecific antibody)
light: B1 light
heavy: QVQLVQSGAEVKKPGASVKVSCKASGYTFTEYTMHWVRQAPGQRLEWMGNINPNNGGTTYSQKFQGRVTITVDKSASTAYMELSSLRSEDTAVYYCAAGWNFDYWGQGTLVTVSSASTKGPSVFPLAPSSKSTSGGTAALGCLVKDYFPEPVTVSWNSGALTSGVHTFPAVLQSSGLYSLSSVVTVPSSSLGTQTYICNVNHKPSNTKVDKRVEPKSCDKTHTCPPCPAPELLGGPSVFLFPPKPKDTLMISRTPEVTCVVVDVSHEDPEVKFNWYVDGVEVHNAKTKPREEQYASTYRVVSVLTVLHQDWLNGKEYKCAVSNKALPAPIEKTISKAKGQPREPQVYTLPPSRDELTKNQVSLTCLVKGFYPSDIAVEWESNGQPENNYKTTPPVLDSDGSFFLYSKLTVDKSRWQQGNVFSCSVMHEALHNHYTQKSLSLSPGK
B3: 10J5-chimeric J591 (antibody, V domains shown)
VH: EVQLQQSGPELVKPGTSVRISCKTSGYTFTEYTIHWVKQSHGKSLEWIGNINPNNGGTTYNQKFEDKATLTVDKSSSTAYMELRSLTSEDSAVYYCAAGWNFDYWGQGTTLTVSS
VL: DIVMTQSHKFMSTSVGDRVSIICKASQDVGTAVDWYQQKPGQSPKLLIYWASTRHTGVPDRFTGSGSGTDFTLTITNVQSEDLADYFCQQYNSYPLTFGAGTMLDLKR
notes: also called J591 chimeric antibody
B4: humanized anti-PSMAxCD3 BsAb BC244 (H3L1) (bispecific antibody, human IgG1, kappa, N297A)
light: DIQLTQSPSFLSASVGDRVTITCRASQDVGTALDWYQQKPGKAPKLLIYWASTLHSGVPSRFSGSGSGTEFTLTISSLQPEDFATYYCQQYNSYPLTFGQGTKLEIKRTVAAPSVFIFPPSDEQLKSGTASVVCLLNNFYPREAKVQWKVDNALQSGNSQESVTEQDSKDSTYSLSSTLTLSKADYEKHKVYACEVTHQGLSSPVTKSFNRGECTSGGGGSGGGGSGGGGSQVQLVQSGGGVVQPGRSLRLSCKASGYTFTRYTMHWVRQAPGKCLEWIGYINPSRGYTNYNQKFKDRFTISRDNSKNTAFLQMDSLRPEDTGVYFCARYYDDHYSLDYWGQGTPVTVSSGGGGSGGGGSGGGGSGGGGSGGGGSGGGGSDIQMTQSPSSLSASVGDRVTITCSASSSVSYMNWYQQTPGKAPKRWIYDTSKLASGVPSRFSGSGSGTDYTFTISSLQPEDIATYYCQQWSSNPFTFGCGTKLQITR
heavy: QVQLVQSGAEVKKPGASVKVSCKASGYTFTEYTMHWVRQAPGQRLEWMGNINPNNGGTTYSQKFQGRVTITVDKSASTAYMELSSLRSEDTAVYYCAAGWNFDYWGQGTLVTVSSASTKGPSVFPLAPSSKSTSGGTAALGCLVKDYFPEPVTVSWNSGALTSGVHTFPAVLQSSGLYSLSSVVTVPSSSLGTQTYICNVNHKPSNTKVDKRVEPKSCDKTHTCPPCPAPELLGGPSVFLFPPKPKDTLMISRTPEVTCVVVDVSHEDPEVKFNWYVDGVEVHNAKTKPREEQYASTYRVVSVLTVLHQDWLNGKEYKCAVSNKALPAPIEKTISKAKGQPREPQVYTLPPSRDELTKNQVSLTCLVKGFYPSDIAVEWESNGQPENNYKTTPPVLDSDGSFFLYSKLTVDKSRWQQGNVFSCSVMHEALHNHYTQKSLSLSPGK
notes: IgG(L)-scFv format, J591_VL-1 + J591_VH-3; also called PSMA-BsAb
B5: humanized anti-PSMAxCD3 BsAb BC243 (H2L3) (bispecific antibody, human IgG1, kappa, N297A)
light: B4 light with Q3V, L4M, F10S, K45E, T53S, S63R, E70D, L78V
heavy: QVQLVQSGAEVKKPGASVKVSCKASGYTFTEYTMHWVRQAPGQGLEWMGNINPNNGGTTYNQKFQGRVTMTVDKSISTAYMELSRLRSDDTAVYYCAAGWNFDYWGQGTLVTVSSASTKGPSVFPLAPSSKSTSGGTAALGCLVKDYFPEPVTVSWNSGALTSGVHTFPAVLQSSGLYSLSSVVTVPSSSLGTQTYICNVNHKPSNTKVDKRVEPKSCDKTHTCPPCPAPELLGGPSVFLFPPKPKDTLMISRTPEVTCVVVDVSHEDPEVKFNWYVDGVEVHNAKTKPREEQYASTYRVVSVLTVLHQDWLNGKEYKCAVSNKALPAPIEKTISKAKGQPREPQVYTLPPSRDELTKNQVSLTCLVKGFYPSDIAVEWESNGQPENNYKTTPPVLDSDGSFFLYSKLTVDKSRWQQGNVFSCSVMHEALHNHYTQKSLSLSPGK
notes: IgG(L)-scFv format, J591_VL-3 + J591_VH-2
B6: humanized anti-PSMAxCD3 BsAb BC245 (H3L3) (bispecific antibody, human IgG1, kappa, N297A)
light: B4 light with Q3V, L4M, F10S, K45E, T53S, S63R, E70D, L78V
heavy: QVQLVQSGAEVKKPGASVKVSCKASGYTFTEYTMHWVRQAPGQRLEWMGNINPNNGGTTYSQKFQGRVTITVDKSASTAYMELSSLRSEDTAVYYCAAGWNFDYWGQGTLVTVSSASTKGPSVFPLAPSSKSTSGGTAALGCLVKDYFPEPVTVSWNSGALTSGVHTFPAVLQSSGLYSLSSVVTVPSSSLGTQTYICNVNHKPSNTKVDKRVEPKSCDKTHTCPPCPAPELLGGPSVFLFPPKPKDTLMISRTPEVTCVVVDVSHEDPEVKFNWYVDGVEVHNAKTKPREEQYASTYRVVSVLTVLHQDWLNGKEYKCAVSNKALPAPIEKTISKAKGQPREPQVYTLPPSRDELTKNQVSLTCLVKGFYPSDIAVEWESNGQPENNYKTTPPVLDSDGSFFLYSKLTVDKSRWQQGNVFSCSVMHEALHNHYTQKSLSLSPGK
notes: IgG(L)-scFv format, J591_VL-3 + J591_VH-3
B7: humanized anti-PSMAxCD3 BsAb BC244a (H2L1) (bispecific antibody, human IgG1, kappa, N297A)
light: B4 light
heavy: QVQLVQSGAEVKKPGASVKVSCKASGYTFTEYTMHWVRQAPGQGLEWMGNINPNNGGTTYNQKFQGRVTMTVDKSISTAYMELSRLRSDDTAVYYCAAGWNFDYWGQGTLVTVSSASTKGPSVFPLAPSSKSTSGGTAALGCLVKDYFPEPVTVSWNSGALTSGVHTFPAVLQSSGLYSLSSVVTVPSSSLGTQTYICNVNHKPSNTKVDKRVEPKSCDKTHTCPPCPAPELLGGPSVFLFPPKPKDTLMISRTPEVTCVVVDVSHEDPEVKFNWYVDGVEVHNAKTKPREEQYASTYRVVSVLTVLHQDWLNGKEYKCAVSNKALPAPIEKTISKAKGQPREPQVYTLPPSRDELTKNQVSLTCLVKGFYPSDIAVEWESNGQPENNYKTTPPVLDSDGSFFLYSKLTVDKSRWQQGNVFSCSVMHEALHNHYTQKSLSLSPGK
notes: IgG(L)-scFv format
B8: murine J591 (antibody, V domains shown)
VH: B3 VH
VL: B3 VL
notes: also called original mouse antibody J591; mouse J591
B9: huJ591 (J591_VH-2 + J591_VL-1) (antibody, human IgG1, V domains shown)
VH: QVQLVQSGAEVKKPGASVKVSCKASGYTFTEYTMHWVRQAPGQGLEWMGNINPNNGGTTYNQKFQGRVTMTVDKSISTAYMELSRLRSDDTAVYYCAAGWNFDYWGQGTLVTVSS
VL: DIQLTQSPSFLSASVGDRVTITCRASQDVGTALDWYQQKPGKAPKLLIYWASTLHSGVPSRFSGSGSGTEFTLTISSLQPEDFATYYCQQYNSYPLTFGQGTKLEIK
notes: One of the 9 huJ591 versions; Human IgG1 frameworks
B10: huJ591 clone having combination of J591_VL-1 and J591_VH-3 (antibody, V domains shown)
VH: B9 VH with G44R, N61S, M70I, I76A, R85S, D89E
VL: DIQLTQSPSFLSASVGDRVTITCRASQDVGTALDWYQQKPGKAPKLLIYWASTLHSGVPSRFSGSGSGTEFTLTISSLQPEDFATYYCQQYNSYPLTFGQGTKLEIKR
notes: also called the select clone
B11: huJ591 (J591_VH-3 + J591_VL-3) (antibody, human IgG1, V domains shown)
VH: B9 VH with G44R, N61S, M70I, I76A, R85S, D89E
VL: B9 VL with Q3V, L4M, F10S, K45E, T53S, S63R, E70D, L78V
notes: as for B9
B12: huJ591 (J591_VH-2 + J591_VL-3) (antibody, human IgG1, V domains shown)
VH: B9 VH
VL: B9 VL with Q3V, L4M, F10S, K45E, T53S, S63R, E70D, L78V
notes: as for B9
B13: huJ591 (J591_VH-1 + J591_VL-1) (antibody, human IgG1, V domains shown)
VH: B9 VH with N61A, V72R
VL: B9 VL
notes: One of the 9 huJ591 versions made from three heavy and three light chain designs; Human IgG1 frameworks, expressed in CHO cells
B14: huJ591 (J591_VH-2 + J591_VL-2) (antibody, human IgG1, V domains shown)
VH: B9 VH
VL: B9 VL with L54R
notes: as for B9
B15: huJ591 (J591_VH-3 + J591_VL-2) (antibody, human IgG1, V domains shown)
VH: B9 VH with G44R, N61S, M70I, I76A, R85S, D89E
VL: B9 VL with L54R
notes: as for B9
B16: huJ591 (J591_VH-1 + J591_VL-2) (antibody, human IgG1, V domains shown)
VH: B9 VH with N61A, V72R
VL: B9 VL with L54R
notes: as for B9
B17: huJ591 (J591_VH-1 + J591_VL-3) (antibody, human IgG1, V domains shown)
VH: B9 VH with N61A, V72R
VL: B9 VL with Q3V, L4M, F10S, K45E, T53S, S63R, E70D, L78V
notes: as for B9

biological target: T1, Human PSMA antigen (human, UniProt Q04609 44-750, limits assumed); test: SPR Biacore, immobilised human PSMA, 37 C, 1:1 fit
T1 construct: This is the antigen immobilised on the Biacore chip; also called FOLH1_HUMAN
T1 sequence (Q04609 44-750 limits assumed): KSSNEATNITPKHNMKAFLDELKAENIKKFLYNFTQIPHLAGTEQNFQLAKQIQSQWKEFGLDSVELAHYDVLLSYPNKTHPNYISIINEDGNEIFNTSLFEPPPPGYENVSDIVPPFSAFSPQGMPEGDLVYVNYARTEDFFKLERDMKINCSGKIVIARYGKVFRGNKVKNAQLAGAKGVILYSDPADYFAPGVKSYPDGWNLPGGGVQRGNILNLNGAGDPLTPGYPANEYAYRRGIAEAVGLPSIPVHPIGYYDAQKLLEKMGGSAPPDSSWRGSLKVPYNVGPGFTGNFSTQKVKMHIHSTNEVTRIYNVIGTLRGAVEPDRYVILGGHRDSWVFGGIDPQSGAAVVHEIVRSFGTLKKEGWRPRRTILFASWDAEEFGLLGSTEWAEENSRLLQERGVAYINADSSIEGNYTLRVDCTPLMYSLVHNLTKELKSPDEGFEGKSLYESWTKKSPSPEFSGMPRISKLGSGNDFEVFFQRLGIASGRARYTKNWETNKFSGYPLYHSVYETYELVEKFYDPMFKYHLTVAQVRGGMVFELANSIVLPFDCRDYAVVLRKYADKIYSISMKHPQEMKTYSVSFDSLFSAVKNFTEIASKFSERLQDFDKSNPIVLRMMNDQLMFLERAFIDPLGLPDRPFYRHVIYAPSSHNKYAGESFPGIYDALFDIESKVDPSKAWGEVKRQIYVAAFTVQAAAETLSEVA
Description: (§1) PSMA-BsAb Biacore Settings. Human PSMA antigen was immobilized directly on Fc2 at 3000 RU, and cynomolgus PSMA (ACRO) on Fc4 at 3000 RU (Blank on Fc1 and Fc3 as controls). Abs were run through the system at 37° C., at concentrations of 250 and 500 nM, with association time 1 min, dissociation time 15 min. Regeneration was performed at 30 mM NaOH. All data were fitted with 1:1 model.

Binder	Kd [nM]	koff [s⁻¹]	kon [M⁻¹ s⁻¹]	t ½ [min]
B1	2.9	0.000279	96200	41.3
B2	2.15	0.00021	97500	55
B3	1.55	0.000196	127000	58.8
B4	1.18	0.000162	138000	71.2
B5	1.6	0.000308	192000	37.5
B6	1.06	0.000159	150000	72.7
B7	2.91	0.000444	152000	26

biological target: T1, Human PSMA antigen; test: SPR (Biacore), 37 C, antibody over immobilized PSMA
Excerpt: The calculated kinetic parameters derived from SPR are shown in FIG. 4C, showing distinct differences in affinities when compared to the chimeric and the original mouse antibody J591. Increased affinity of anti-PSMA antibodies should translate into higher potency, while lower affinity anti-PSMA antibodies into lower toxicity. This affinity modulation is achieved without altering the CDR sequences. Based on the binding kinetics, the clone having combination of J591_VL-1 and J591_VH-3, which has near identical binding kinetics to those of J591 chimeric antibody, was chosen to build the PSMA-BsAb (BC244) of the present technology. The amino acid sequences of the light chain (SEQ ID NO: 11) and the heavy chain (SEQ ID NO: 12) of the select clone are shown in FIG. 12. Mutation N297A was used to remove glycosylation, and K322A to minimize complement activation.

Binder	Kd [nM]	koff [s⁻¹]	kon [M⁻¹ s⁻¹]	fold-change KD relative to chimeric [fold]
B3	0.206	1.21e-05	58500	–
B8	6.39	0.000113	17700	31
B9	3.54	0.000176	49700	17.2
B10	1.67	9.69e-05	58200	8.1
B11	11.9	0.00057	47900	57.8
B12	3.48	0.000211	60600	16.9
B13	3.32	0.000228	68600	16.1
B14	4.81	0.000286	59400	23.3
B15	2.54	0.000146	57400	12.3
B16	4.86	0.000379	77900	23.6
B17	3.55	0.000285	80500	17.2

biological target: PSMA on PSMA(+) canine osteosarcoma cell lines (D-17, DSN, DAN, DSDh) (canine, UniProt I4IY07 29-779); test: cell-based or functional assay
Sequence (I4IY07 entry or part of it limits assumed): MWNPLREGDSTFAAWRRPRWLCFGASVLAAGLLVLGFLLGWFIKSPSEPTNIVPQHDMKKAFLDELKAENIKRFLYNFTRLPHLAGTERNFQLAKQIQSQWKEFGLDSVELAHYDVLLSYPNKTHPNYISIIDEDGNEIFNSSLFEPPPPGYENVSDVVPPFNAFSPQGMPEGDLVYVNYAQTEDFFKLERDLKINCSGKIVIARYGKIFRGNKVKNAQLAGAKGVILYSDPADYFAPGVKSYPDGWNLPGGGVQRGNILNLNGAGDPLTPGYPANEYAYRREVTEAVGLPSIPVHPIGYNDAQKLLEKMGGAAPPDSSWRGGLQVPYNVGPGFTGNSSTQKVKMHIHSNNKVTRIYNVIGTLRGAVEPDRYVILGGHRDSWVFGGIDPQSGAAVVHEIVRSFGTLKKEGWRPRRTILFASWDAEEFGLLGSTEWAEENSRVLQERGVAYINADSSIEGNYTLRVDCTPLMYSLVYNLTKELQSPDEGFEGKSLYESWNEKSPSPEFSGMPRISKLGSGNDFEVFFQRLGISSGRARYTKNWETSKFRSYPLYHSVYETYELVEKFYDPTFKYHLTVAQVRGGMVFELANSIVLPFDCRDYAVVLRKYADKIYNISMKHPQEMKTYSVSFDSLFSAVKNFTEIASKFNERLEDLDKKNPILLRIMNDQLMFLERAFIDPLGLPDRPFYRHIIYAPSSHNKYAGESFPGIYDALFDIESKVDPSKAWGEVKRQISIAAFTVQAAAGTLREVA

Binder	EC50, ADTC (4-hour 51Cr release), D-17 cells [nM]	EC50, ADTC (4-hour 51Cr release), DAN cells [nM]	EC50, ADTC (4-hour 51Cr release), DSDh cells [nM]	EC50, ADTC (4-hour 51Cr release), DSN cells [nM]
B4	0.106	0.102	0.152	0.0703

biological target: PSMA on PSMA(+) human prostate cancer cell lines (LNCaP-AR, PC3-PIP, CWR22, VCaP) (human, UniProt Q04609 1-750); test: cell-based or functional assay
Sequence (Q04609 whole entry): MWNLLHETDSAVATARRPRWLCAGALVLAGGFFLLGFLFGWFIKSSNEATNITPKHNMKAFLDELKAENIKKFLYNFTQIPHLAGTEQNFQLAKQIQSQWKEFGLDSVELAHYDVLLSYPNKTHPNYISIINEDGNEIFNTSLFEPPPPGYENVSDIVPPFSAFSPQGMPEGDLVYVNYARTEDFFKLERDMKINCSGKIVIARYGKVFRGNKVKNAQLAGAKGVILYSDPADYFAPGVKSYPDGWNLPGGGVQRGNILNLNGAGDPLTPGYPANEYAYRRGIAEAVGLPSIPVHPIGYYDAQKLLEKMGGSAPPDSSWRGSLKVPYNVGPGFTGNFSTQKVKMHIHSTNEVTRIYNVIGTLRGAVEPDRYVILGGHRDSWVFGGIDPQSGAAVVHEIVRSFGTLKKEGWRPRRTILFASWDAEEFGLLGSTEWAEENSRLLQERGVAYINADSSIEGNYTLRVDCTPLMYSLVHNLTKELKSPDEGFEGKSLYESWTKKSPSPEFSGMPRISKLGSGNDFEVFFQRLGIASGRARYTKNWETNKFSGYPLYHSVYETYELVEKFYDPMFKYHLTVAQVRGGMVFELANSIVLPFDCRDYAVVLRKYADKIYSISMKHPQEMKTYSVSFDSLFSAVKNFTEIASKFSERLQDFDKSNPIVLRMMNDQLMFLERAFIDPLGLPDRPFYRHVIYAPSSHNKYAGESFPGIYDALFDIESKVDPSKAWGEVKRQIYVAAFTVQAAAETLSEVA

Binder	EC50, ADTC (4-hour 51Cr release), LNCaP-AR cells	EC50, ADTC (4-hour 51Cr release), PC3-PIP cells	EC50, ADTC (4-hour 51Cr release), VCaP cells
B4	0.000761 µg/mL and 3.81 pM	2.1e-05 µg/mL and 107 fM	0.0163 µg/mL and 81.7 pM

biological target: T2, cynomolgus PSMA (ACRO) (cynomolgus, UniProt A0A2K5VNZ0 44-750); test: SPR Biacore, immobilised cynomolgus PSMA, 37 C, 1:1 fit
T2 construct: Immobilised on the Biacore chip
Description: as §1

Binder	Kd [nM]	koff [s⁻¹]	kon [M⁻¹ s⁻¹]	t ½ [min]
B1	8.75	0.000459	52500	25.2
B2	4.88	0.000209	42900	55.2
B3	3.71	0.000716	193000	16.1
B4	2.79	0.000329	118000	35.1
B5	3.58	0.000634	177000	18.2
B6	2.49	0.000324	130000	35.7
B7	6.67	0.000781	117000	14.8
